Laboratory results published in US20220025021A1 (BETH ISRAEL DEACONESS MEDICAL CENTER, published 2022).

How the values were obtained:
Assay in all cases: cell-based or functional assay
[1] = target: HIV-1 Env of pseudovirus RHPA4259.7 (HIV-1)
[2] = target: HIV-1 Env of pseudovirus 0260.v5.c36 (HIV-1)
[3] = target: HIV-1 Env of pseudovirus CNE52 (HIV-1)
[4] = target: HIV-1 Env of pseudovirus SC422661.8 (HIV-1)
[5] = target: HIV-1 Env of pseudovirus BB1012-11.TC21 (HIV-1)
[6] = target: HIV-1 Env of pseudovirus Du172.17 (HIV-1)

B1: MS-68 (antibody)
VH: not shown
VL: DFVLTQSPHSLPVTPGESASISCKSSHSLIHGDRNNYLAWYVQKPGRSPQLLIYLASSRASGVPDRFSGSGSDKDFTLKISRVETEDVGTYYCMQGRESPWTFGQGTKVDIKRTVAAPSVFIFPPSDEQLKSGTASVVCLLNNFYPREAKVQWKVDNALQSGNSQESVTEQDSKDSTYSLSSTLTLSKADYEKHKVYACEVTHQGLSSPVTKSFNRGEC
Question: Which results are given for B1?
Answer: neutralization IC50 [1]: 0.199 µg/mL; neutralization IC80 [1]: 0.759 µg/mL; neutralization IC50 [2]: 0.019 µg/mL; neutralization IC80 [2]: 0.073 µg/mL; neutralization IC50 [3]: 0.136 µg/mL; neutralization IC80 [3]: 1.13 µg/mL; neutralization IC50 [4]: 0.538 µg/mL; neutralization IC80 [4]: 2.02 µg/mL; neutralization IC50 [5]: 0.023 µg/mL; neutralization IC80 [5]: 0.076 µg/mL; neutralization IC50 [6]: 1.82 µg/mL; neutralization IC80 [6]: 6.8 µg/mL

B2: MS-69 (antibody)
VH: not shown
VL: DFVLTQSPHSLSVTPGEPASISCKSSHSLIHGDRNNYLAWYVQKPGRSPQLLIYLASSRASGVPDRFSGSGSDKDFTLKISRVETEDVGTYYCMQGRESPWTFGQGTKVDIKRTVAAPSVFIFPPSDEQLKSGTASVVCLLNNFYPREAKVQWKVDNALQSGNSQESVTEQDSKDSTYSLSSTLTLSKADYEKHKVYACEVTHQGLSSPVTKSFNRGEC
Question: What does the source list for B2?
Answer: neutralization IC50 [1]: 0.139 µg/mL; neutralization IC80 [1]: 0.811 µg/mL; neutralization IC50 [2]: 0.021 µg/mL; neutralization IC80 [2]: 0.078 µg/mL; neutralization IC50 [3]: 0.129 µg/mL; neutralization IC80 [3]: 1.9 µg/mL; neutralization IC50 [4]: 0.609 µg/mL; neutralization IC80 [4]: 3.37 µg/mL; neutralization IC50 [5]: 0.018 µg/mL; neutralization IC80 [5]: 0.071 µg/mL; neutralization IC50 [6]: 1.4 µg/mL; neutralization IC80 [6]: 5.6 µg/mL

B3: MS-70 (antibody, V domains shown)
VH: QVQLVQSGPEVRKPGTSVKVSCKAPGNTLKTYDLHWVRSVPGQGLQWMGWISHEGDKKVIVERFKAKVTIDWDRSTNTAYLQLSGLTSGDTAVYYCAKGSKHRLRDYALYDDDGALNWAVDVDYLSNLEFWGQGTAVTVSS
VL: DFVLTQSPHSLSVTPGESASISCKSSHSLIHGDRNNYLAWYVQKPGQSPQLLIYLASSRASGVPDRFSGSGSDKDFTLKISRVETEDVGTYYCMQGRESPWTFGQGTKVDIKR
Question: Which results are given for B3?
Answer: neutralization IC50 [1]: 0.182 µg/mL; neutralization IC80 [1]: 0.734 µg/mL; neutralization IC50 [2]: 0.028 µg/mL; neutralization IC80 [2]: 0.103 µg/mL; neutralization IC50 [3]: 0.301 µg/mL; neutralization IC80 [3]: 2.55 µg/mL; neutralization IC50 [4]: 0.391 µg/mL; neutralization IC80 [4]: 2.43 µg/mL; neutralization IC50 [5]: 0.021 µg/mL; neutralization IC80 [5]: 0.079 µg/mL; neutralization IC50 [6]: 1.49 µg/mL; neutralization IC80 [6]: 6.05 µg/mL

B4: MS-71 (antibody)
VH: not shown
VL: DFVLTQSPHSLSVTPGESASISCKSSHSLIHGDRNNYLAWYVQKPGRSPQLLIYLASSRASGVPDRFSGSGSGKDFTLKISRVETEDVGTYYCMQGRESPWTFGQGTKVDIKRTVAAPSVFIFPPSDEQLKSGTASVVCLLNNFYPREAKVQWKVDNALQSGNSQESVTEQDSKDSTYSLSSTLTLSKADYEKHKVYACEVTHQGLSSPVTKSFNRGEC
Question: With B4 as the binder, how does the “neutralization IC50” value [1] read?
Answer: Its value is 0.164 µg/mL.

Question: And the “neutralization IC80” value [1]?
Answer: The value was 0.583 µg/mL.

Question: What about the “neutralization IC50” value [2] of the same binder?
Answer: Its value is 0.022 µg/mL.

Question: And the “neutralization IC80” value [2]?
Answer: The value was 0.062 µg/mL.

Question: And the “neutralization IC50” value [3]?
Answer: Its value is 0.172 µg/mL.

Question: And the “neutralization IC80” value [3]?
Answer: Its value is 2.59 µg/mL.

Question: And the “neutralization IC50” value [4]?
Answer: The value was 0.273 µg/mL.

Question: What about the “neutralization IC80” value [4] of the same binder?
Answer: Its value is 1.94 µg/mL.

Question: What about the “neutralization IC50” value [5] of the same binder?
Answer: Its value is 0.015 µg/mL.

Question: What about the “neutralization IC80” value [5] of the same binder?
Answer: The value was 0.054 µg/mL.

Question: And the “neutralization IC50” value [6]?
Answer: Its value is 1.29 µg/mL.

Question: And the “neutralization IC80” value [6]?
Answer: The value was 6.07 µg/mL.

B5: MS-72 (antibody, V domains shown)
VH: QVQLVQSGPEVRKPGTSVKVSCKAPGNTLKTYDLHWVRSVPGQGLQWMGWISHEGDKKVIVERFKAKVTIDWDRSTNTAYLQLSGLTSGDTAVYYCAKGSKHRLRDYALYDDDGALNWAVDVDYLSNLEFWGQGTAVTVSS
VL: DFVLTQSPHSLSVTPGESASISCKSSHSLIHGDRNNYLAWYVQKPGRSPQLLIYLASSRASGVPDRFSGSGSDTDFTLKISRVETEDVGTYYCMQGRESPWTFGQGTKVDIKR
Question: What does the source list for B5?
Answer: neutralization IC50 [1]: 0.247 µg/mL; neutralization IC80 [1]: 1.16 µg/mL; neutralization IC50 [2]: 0.023 µg/mL; neutralization IC80 [2]: 0.114 µg/mL; neutralization IC50 [3]: 0.302 µg/mL; neutralization IC80 [3]: 4.53 µg/mL; neutralization IC50 [4]: 0.373 µg/mL; neutralization IC80 [4]: 2.83 µg/mL; neutralization IC50 [5]: 0.023 µg/mL; neutralization IC80 [5]: 0.089 µg/mL; neutralization IC50 [6]: 1.75 µg/mL; neutralization IC80 [6]: 8.76 µg/mL

B6: MS-73 (antibody)
VH: not shown
VL: DFVLTQSPHSLSVTPGESASISCKSSHSLIHGDRNNYLAWYVQKPGRSPQLLIYLASSRASGVPDRFSGSGSDKDFTLKISRVEAEDVGTYYCMQGRESPWTFGQGTKVDIKRTVAAPSVFIFPPSDEQLKSGTASVVCLLNNFYPREAKVQWKVDNALQSGNSQESVTEQDSKDSTYSLSSTLTLSKADYEKHKVYACEVTHQGLSSPVTKSFNRGEC
Question: With B6 as the binder, how does the “neutralization IC50” value [1] read?
Answer: The value was 0.094 µg/mL.

Question: What about the “neutralization IC80” value [1] of the same binder?
Answer: The value was 0.549 µg/mL.

Question: What about the “neutralization IC50” value [2] of the same binder?
Answer: Its value is 0.018 µg/mL.

Question: What about the “neutralization IC80” value [2] of the same binder?
Answer: The value was 0.065 µg/mL.

Question: And the “neutralization IC50” value [3]?
Answer: The value was 0.207 µg/mL.

Question: What about the “neutralization IC80” value [3] of the same binder?
Answer: The value was 1.81 µg/mL.

Question: And the “neutralization IC50” value [4]?
Answer: Its value is 0.384 µg/mL.

Question: What about the “neutralization IC80” value [4] of the same binder?
Answer: The value was 2.54 µg/mL.

Question: And the “neutralization IC50” value [5]?
Answer: Its value is 0.023 µg/mL.

Question: And the “neutralization IC80” value [5]?
Answer: Its value is 0.086 µg/mL.

Question: What about the “neutralization IC50” value [6] of the same binder?
Answer: Its value is 0.934 µg/mL.

Question: And the “neutralization IC80” value [6]?
Answer: The value was 5 µg/mL.

B7: MS-74 (antibody, V domains shown)
VH: QVQLVQSGPEVRKPGTSVKVSCKAPGNTLKTYDLHWVRSVPGQGLQWMGWISHEGDKKVIVERFKAKVTIDWDRSTNTAYLQLSGLTSGDTAVYYCAKGSKHRLRDYALYDDDGALNWAVDVDYLSNLEFWGQGTAVTVSS
VL: DFVLTQSPHSLSVTPGESASISCKSSHSLIHGDRNNYLAWYVQKPGRSPQLLIYLASSRASGVPDRFSGSGSDKDFTLKISRVETEDVGVYYCMQGRESPWTFGQGTKVDIKR
Question: Which “neutralization IC50” value [1] does the source give for B7 here?
Answer: The value was 0.132 µg/mL.

Question: What about the “neutralization IC80” value [1] of the same binder?
Answer: Its value is 0.461 µg/mL.

Question: And the “neutralization IC50” value [2]?
Answer: The value was 0.017 µg/mL.

Question: And the “neutralization IC80” value [2]?
Answer: The value was 0.086 µg/mL.

Question: And the “neutralization IC50” value [3]?
Answer: Its value is 0.169 µg/mL.

Question: What about the “neutralization IC80” value [3] of the same binder?
Answer: Its value is 1.46 µg/mL.

Question: What about the “neutralization IC50” value [4] of the same binder?
Answer: Its value is 0.388 µg/mL.

Question: And the “neutralization IC80” value [4]?
Answer: The value was 3.51 µg/mL.

Question: What about the “neutralization IC50” value [5] of the same binder?
Answer: Its value is 0.021 µg/mL.

Question: What about the “neutralization IC80” value [5] of the same binder?
Answer: Its value is 0.093 µg/mL.

Question: And the “neutralization IC50” value [6]?
Answer: The value was 1.46 µg/mL.

Question: And the “neutralization IC80” value [6]?
Answer: The value was 5.57 µg/mL.

B8: MS-75 (antibody, V domains shown)
VH: QVQLVQSGPEVRKPGTSVKVSCKASGNTLKTYDLHWVRSVPGQGLQWMGWISHEGDKKVIVERFKAKVTIDWDRSTNTAYLQLSGLTSGDTAVYYCAKGSKHRLRDYALYDDDGALNWAVDVDYLSNLEFWGQGTAVTVSS
VL: DFVLTQSPHSLSVTPGESASISCKSSHSLIHGDRNNYLAWYVQKPGRSPQLLIYLASSRASGVPDRFSGSGSDKDFTLKISRVETEDVGTYYCMQGRESPWTFGQGTKVDIKR
Question: How did the “neutralization IC50” value [1] turn out when B8 was run?
Answer: Its value is 0.276 µg/mL.

Question: And the “neutralization IC80” value [1]?
Answer: The value was 1.31 µg/mL.

Question: And the “neutralization IC50” value [2]?
Answer: The value was 0.034 µg/mL.

Question: And the “neutralization IC80” value [2]?
Answer: The value was 0.137 µg/mL.

Question: And the “neutralization IC50” value [3]?
Answer: The value was 0.687 µg/mL.

Question: What about the “neutralization IC80” value [3] of the same binder?
Answer: The value was 7.55 µg/mL.

Question: What about the “neutralization IC50” value [4] of the same binder?
Answer: Its value is 0.489 µg/mL.

Question: What about the “neutralization IC80” value [4] of the same binder?
Answer: The value was 9.41 µg/mL.

Question: And the “neutralization IC50” value [5]?
Answer: The value was 0.029 µg/mL.

Question: And the “neutralization IC80” value [5]?
Answer: The value was 0.134 µg/mL.

Question: What about the “neutralization IC50” value [6] of the same binder?
Answer: The value was 3.56 µg/mL.

Question: What about the “neutralization IC80” value [6] of the same binder?
Answer: The value was 16.1 µg/mL.

B9: MS-76 (antibody, V domains shown)
VH: QVQLVQSGPEVRKPGTSVKVSCKAPGYTLKTYDLHWVRSVPGQGLQWMGWISHEGDKKVIVERFKAKVTIDWDRSTNTAYLQLSGLTSGDTAVYYCAKGSKHRLRDYALYDDDGALNWAVDVDYLSNLEFWGQGTAVTVSS
VL: DFVLTQSPHSLSVTPGESASISCKSSHSLIHGDRNNYLAWYVQKPGRSPQLLIYLASSRASGVPDRFSGSGSDKDFTLKISRVETEDVGTYYCMQGRESPWTFGQGTKVDIKR
Question: How did the “neutralization IC50” value [1] turn out when B9 was run?
Answer: The value was 0.242 µg/mL.

Question: And the “neutralization IC80” value [1]?
Answer: The value was 0.842 µg/mL.

Question: And the “neutralization IC50” value [2]?
Answer: The value was 0.01 µg/mL.

Question: What about the “neutralization IC80” value [2] of the same binder?
Answer: Its value is 0.06 µg/mL.

Question: And the “neutralization IC50” value [3]?
Answer: Its value is 0.174 µg/mL.

Question: And the “neutralization IC80” value [3]?
Answer: The value was 1.37 µg/mL.

Question: What about the “neutralization IC50” value [4] of the same binder?
Answer: Its value is 0.36 µg/mL.

Question: And the “neutralization IC80” value [4]?
Answer: Its value is 6.46 µg/mL.

Question: And the “neutralization IC50” value [5]?
Answer: The value was 0.013 µg/mL.

Question: And the “neutralization IC80” value [5]?
Answer: Its value is 0.059 µg/mL.

Question: And the “neutralization IC50” value [6]?
Answer: The value was 1.7 µg/mL.

Question: And the “neutralization IC80” value [6]?
Answer: Its value is 9.68 µg/mL.
